Measurements taken from paper PMC4324353.
Like-named read-outs stand apart in the source and are kept apart here.

Key:
[1] = target: T1, latrunculin B bound actin (A. castellani actin monomer) (A. castellani); experiment: fluorescence polarisation
[2] = target: T1, latrunculin B bound actin (A. …); experiment: fluorescence polarisation; remark: listed apart in the source
[3] = target: actin filaments (polymerized A. castellani actin) (A. castellani); experiment: steady state polymerization titration

Kd [1] [nM] | Kd [2] [nM] | Kd [3] [nM] | Binder
110 |  |  | KKDAHAMILEFIRSRPPLKKASDRQLGPPRMCEPS (domain or fragment, modifications not checked) [Spir third WH2 domain with Linker 3 (SC3)]
1140 | 90 to 1130 |  | WARFWVQVIDELRRGVRLKKSNHERT (domain or fragment, modifications not checked) [Spir first WH2 domain (SA)]
210 |  | 2000 | KKDAHAMILEFIRSRPPLKKA (domain or fragment, modifications not checked) [Spir third WH2 domain (Spir-C, SC)]
